The experiment has as its target T1, CD47 (UniProt Q08722 19-323, limits assumed).
T1 construct: whole, on cells; L540cy and SW780 are the cell lines named
The experiment can be described thus: saturation binding, flow cytometry on CD47-expressing L540cy cells. In general terms: Flow cytometry measures light scatter and fluorescence of single cells or particles in a stream.

B1: hB6H12.3 (unmasked parent) (antibody, V domains shown)
VH: EVQLLESGGGLVQPGGSLRLSCAASGFTFSGYGMSWVRQAPGKRLEWVATITSGGTYTYYPDSVKGRFTISRDNSKNTLYLQMNSLRAEDTAIYFCARSLAGNAMDYWGQGTLVTVSS
VL: EIVMTQSPDFQSVTPKEKVTLTCRASQTISDYLHWYQQKPDQSPKLLIKFASQSISGVPSRFSGSGSGSDFTLTINSLEAEDAATYYCQNGHGFPRTFGQGTKLEIKR
As a reminder, the EC50 is the concentration giving half of the maximal effect. Low values mean a more potent agent, high ones a less potent agent. In the case of B1, a half-maximal effect (EC50) was put at 21 nM.
